Values quoted from earlier work in publication PMC13615496.
pKd: −log10 of the molar value.

Target: PYL (Arabidopsis thaliana) (UniProt Q8VZS8)
Chain of UniProt Q8VZS8 (Q8VZS8 2-221): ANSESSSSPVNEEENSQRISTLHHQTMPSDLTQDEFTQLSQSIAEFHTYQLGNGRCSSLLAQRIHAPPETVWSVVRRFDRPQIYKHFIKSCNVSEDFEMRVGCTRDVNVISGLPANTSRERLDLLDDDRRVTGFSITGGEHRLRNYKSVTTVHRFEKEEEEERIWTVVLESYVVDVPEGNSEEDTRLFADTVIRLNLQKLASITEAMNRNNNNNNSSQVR

pKd: 4.28
Substance: ABI (from UniProt P49597)
